Results as given in PMC8428749.

Molecular target: human C4b binding protein (C4BP) (human) (UniProt P04003)
Experiment: BLI; Octet RED96; purified C4BP immobilised on amine-reactive (AR2G) sensor; P5 loop peptides 1.25-50 µM in PBS; 30°C; 1:1 binding fit

Sequence of UniProt P04003 (P04003 49-597, chain 1 of 2): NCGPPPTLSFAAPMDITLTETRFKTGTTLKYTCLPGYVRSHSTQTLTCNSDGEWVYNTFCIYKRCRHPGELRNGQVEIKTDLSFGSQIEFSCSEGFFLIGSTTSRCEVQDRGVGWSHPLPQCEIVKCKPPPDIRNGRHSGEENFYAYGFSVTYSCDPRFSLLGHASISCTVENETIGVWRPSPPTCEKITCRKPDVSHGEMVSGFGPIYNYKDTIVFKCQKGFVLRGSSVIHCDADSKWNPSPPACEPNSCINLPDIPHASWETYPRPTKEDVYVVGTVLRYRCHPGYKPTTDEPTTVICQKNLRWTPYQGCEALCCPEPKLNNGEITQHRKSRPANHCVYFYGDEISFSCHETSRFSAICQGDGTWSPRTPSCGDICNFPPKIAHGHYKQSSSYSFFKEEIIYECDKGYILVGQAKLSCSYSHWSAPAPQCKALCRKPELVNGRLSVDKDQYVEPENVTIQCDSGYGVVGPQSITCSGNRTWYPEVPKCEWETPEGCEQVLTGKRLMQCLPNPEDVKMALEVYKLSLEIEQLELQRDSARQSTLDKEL
Sequence of UniProt P04003 (P20851 18-252, chain 2 of 2, further chain): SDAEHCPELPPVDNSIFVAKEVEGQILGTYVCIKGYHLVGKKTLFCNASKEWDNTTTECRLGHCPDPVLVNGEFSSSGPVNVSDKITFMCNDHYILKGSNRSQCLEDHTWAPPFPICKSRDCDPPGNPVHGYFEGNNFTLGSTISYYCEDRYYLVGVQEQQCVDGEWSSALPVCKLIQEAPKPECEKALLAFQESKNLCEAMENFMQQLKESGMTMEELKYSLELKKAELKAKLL

synthetic peptide of outer surface loop 2 of P5 from NTHi 3655
Kd: 10 µM

synthetic peptide of outer surface loop 2 of P5 from NTHi KR271
Kd: 73 µM
